One substance from PMC5653653 can be followed below.

The target in test [1] is long Homer proteins (Homer1b/c, Homer2, and Homer3, collectively referred to as Homer) (mouse (endogenous in hippocampal neurons)).
Test [2] has the same target. The source holds these as a separate data set.
For test [3] the target is unchanged. The source holds these as a separate data set.

In the case of “Metabotropic glutamate receptor subtype 5 (mGluR5) (from UniProt Q3UVX5 19-1203)”, in test [1], the change of the mobile fraction of synaptic mGluR5 in WT neurons, TAT-mGluR5ct against TAT-mGluR5mu was determined as 12.6%. Further, in test [2], the EPSCs (NMDA) amplitude (% of baseline) after DHPG (mGluR-LTD) in WT slices treated with TAT-mGluR5ct; LTD abolished was determined as 101%; the EPSCs (NMDA) amplitude (% of baseline) after DHPG (mGluR-LTD) in WT slices treated with the control peptide TAT-mGluR5mu; LTD not abolished is 56.6%; the EPSCs (NMDA) amplitude in CA1 pyramidal neurons of WT slices treated with TAT-mGluR5ct (5 µM, 4 h); lower than untreated WT is 88.1 pA; the EPSCs (NMDA) amplitude in CA1 pyramidal neurons of WT slices treated with the control peptide TAT-mGluR5mu (5 µM, 4 h); not lower than untreated WT worked out at 126 pA. Further, the NMDA/AMPA ratio in CA1 pyramidal neurons of WT slices treated with TAT-mGluR5ct; reduced in test [2] worked out at 0.88. Also, in test [3], the co-localized mGluR5/GluN1/Homer1-positive signals as percentage of synaptic GluN1 signal, WT neurons treated with TAT-mGluR5ct (5 µM, 1 h); increased is 71.8% and the co-localized mGluR5/GluN1/Homer1-positive signals as percentage of synaptic GluN1 signal, WT neurons treated with the control peptide TAT-mGluR5mu (5 µM, 1 h); no effect came to 61.2%.
